Data on 3 substances can be found in paper PMC4303335.

Test [1] has as its target H3–K27 substrate peptide of the sensor (no NLS). Description: split reporter.
The target of test [2] is H3–K9 substrate peptide of the sensor with C-terminal NLS (NhRluc8.6-Suv39H1–H3–K9-ChRLuc-NLS). As to the kind of experiment: split reporter.

“Pc2 chromodomain in the H3–K27 sensor (domain or fragment)”: the reconstituted RLuc signal (RLU/μg protein) in test [1] turned out to be 3.67e+07.

As for “Suv39H1 chromodomain in the H3–K9 sensor (NhRluc8.6-Suv39H1–H3–K9-ChRLuc) (domain or fragment)”, in test [2], the reconstituted RLuc signal was determined as 3.3e+06 and the reconstituted RLuc signal (RLU/μg protein) was 5.26e+06.

“Suv39H1 chromodomain mutant (W64A, W74A) in the H3–K9 sensor (domain or fragment)” showed a reconstituted RLuc signal in test [2] of 1.75e+06.
